Drawing on article PMC11683240, this text covers IC50 for one substance.

The target in experiment [1] is Bordetella pertussis toxin (PT) holotoxin (Bordetella pertussis) (UniProt P04977). Briefly: FACS. The conditions noted are these: natural protein.
Experiment [2] has the same target. The experiment can be described thus: FACS. Conditions: natural protein. The source holds these as a separate data set.

α1-antitrypsin (Prolastin, plasma-derived), sequence (P01009 25-418): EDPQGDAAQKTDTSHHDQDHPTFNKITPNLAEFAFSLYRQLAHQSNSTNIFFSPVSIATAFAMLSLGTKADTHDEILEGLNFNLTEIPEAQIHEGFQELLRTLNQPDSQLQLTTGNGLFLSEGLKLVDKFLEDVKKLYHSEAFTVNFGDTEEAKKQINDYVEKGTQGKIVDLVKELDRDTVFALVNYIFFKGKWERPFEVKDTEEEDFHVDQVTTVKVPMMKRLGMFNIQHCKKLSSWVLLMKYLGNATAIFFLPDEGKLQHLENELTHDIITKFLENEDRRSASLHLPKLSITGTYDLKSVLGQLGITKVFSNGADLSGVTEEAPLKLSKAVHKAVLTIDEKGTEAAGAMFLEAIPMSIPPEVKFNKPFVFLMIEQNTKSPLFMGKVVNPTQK

As for “α1-antitrypsin (Prolastin, plasma-derived) (from UniProt P01009 25-418)”, the concentration for half-maximal inhibition (IC50) (as a rule, the concentration that inhibits the measured activity by half) in experiment [1] worked out at 0.796 µM; in experiment [2], 1.73 µM.
